Experimental data taken from the nanobody polyreactivity screen of Harvey et al. (2022).

Assay: yeast display, Sf9 membrane polyspecificity reagent, FACS + sequencing; frameworks hold sequencing errors
Outline: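 Synthetic nanobody libraries on Saccharomyces cerevisiae BJ5465 were galactose-induced for 36–48 hours, stained 1 hour at 4 °C with 10% biotinylated, detergent-solubilized Sf9 membrane reagent and enriched on streptavidin microbeads. FACS then separated cells into low and high (top ~1%) gates by anti-HA (expression) and streptavidin (reagent binding) fluorescence. Genes were colony-PCR amplified, MiSeq 2 × 250 sequenced and CDR-length filtered. A clone's polyreactivity label is that of its gate of origin.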

Row | Sequence | polyreactivity (PSR sort gate)
1 | QVQLVESGGGLVQAGGSLRLSCAASGFTFGNYAMGWYRQAPGKERELVAAITRGGSTYYADSVKGRFTISRDNAKNTVYLQMKSLKPEDTAVYYCAARYFFWFRPSEYYYWGQGTQVTVSS | high polyreactivity
2 | QVQLVESGVVLVQAGGSLRLSCAASGYTFRVYTMGWYRQAPGKERELVAAISRRGSRTYYADSVKGRFTISRDYAKNTVYLQKNSLKPEDTAVYYCAAGIPYPDDYWGLGTQVTVSS | high polyreactivity
3 | QVQLVESGGGLVQAGGSLRLSCAASGGIFSPNAMGWYRQAHGKERELVASISSNGGSTNYADSVKGRFTISRDNAKNTVYLQMNSLKPEDTAVYYCAGLQKRRSYWRPFYWGQGTQVTVSS | low polyreactivity
4 | QVQLVESGGGLVQAGGSLRLSCAASGSIFRKYVMGWYRQAPGKERELVAVISSGTGTYYADSVKGRFTISRDNAKYTVYLQMNSLKPEDTAVYYCSSKYFGKWYKYYYWGQGTQVTVSS | high polyreactivity
5 | QVQLVESGGGLVQAGGSLRLSCAASGYIFERNAMGWYRQAPGKERELVAAITDDGDDTYYADSVKGRFTISRDNAKNTVFLLMNSLKPEDTAVYYCAKDLYYGDYYYWGQGTQVTVSS | low polyreactivity
6 | QVQLVESGGGLVQAGGRLRLSCAASGRSYPPYAMGWYREAPGKERELLAAISYSGGSTYYADSVTGRFTISRDNAKNPVYLQMNSLKPEDTSVFYCNKDISREVGIRMDDWGQGTQVTVSS | high polyreactivity
7 | QVQLVESGGGLVQAGGSLRLSCAASGSIFPFNAMGWYRQAPGKERELVAAISRRGTGTYYADSVKGRFTISRDNAKNTVYLQMNSLKPEDTAVYYCNAVVRAGHYDYWGQGTQVTLSS | high polyreactivity
8 | HVQLVESGGGLVQAGGSLRLSCDASGRTFYRYVIGWYRQAPGKERELVAAISKSDGSSYYADSVKGRFTISRDNAKNTVYLQMNSLKPEDTAVYYCAAQYPTFYSPRPFNYWGQGTQVTVSS | high polyreactivity
9 | QVQLVESGGGLVQAGGSLRLSCAASGRTFYSYAMGWYRQAPGKERELVASISSSGASTYYADSVKGRFTISRDNAKNTVYLQMNSLKPEDTAVYYCNAVWRTSFITIYGFDYWGQGTQVTVSS | high polyreactivity
10 | QVQLVESGGGLVQAGGSLRLSCAASGRIFRYYAMGWYRQAPGKERELVAAISSGGSTYYADSVKGRFTISRDNAKNTVYLQMNSLKQEDTAVYYCAADRRYSYNWGHGTQVTVSS | high polyreactivity
11 | QVQLEESGGGLVQAGGSLRLSCAASGSTFQRYAIGWYRQAPGKERELVAAISYRAGRRYYADSVKGRFTISRDNAKNTVYLQMNSLKPEDTAVYYCAAKNQGYQYDYWGQGTQVTVSS | high polyreactivity
12 | QVQLVESGGGLVQAGGSLLLSCAASVRIFQGYAMGWYRQEPGKERELVAAISSGGRTYYADSVKGRFTISRDNAKNTVYLQMNSLKPEDTAVYYCAARSPKAHGLQRFDYWGQGTQVTVSS | high polyreactivity
13 | QVQLVESGGGLFQAGGSLRLSCAASGGIFPFYAMGWYRQAPGKERELVAAISSGGSTNYADSVKGRFTISRDNAKNTVYLQMNSLKPEDTAVYYWNTVFQLGEGGSYGYDYWGQGTQVTVSS | low polyreactivity
14 | QVQLVESGGGLVQAGGSLRLTCAASGRTLRLYPMGWYRQAPGKERELVAAISRSGSSTYADSVKGRFTISRDNAKNTVYLQMYSLKPEDTAVYYCNAYQPRYGYWGQGTQVTVSS | high polyreactivity
15 | QVQLVESGGGLVQAGGSLRLSCAASGFTFLTYAMGWYRQAPGKERELVAAINNSGGRTYYADSVKGRFTISRDNAKNTVYLQMNSLKPEDTAVYYCAADYLRGKHRYGYWGQGTQVTVSS | high polyreactivity
16 | QVQLVESGGGLDQAGGSLRLICAASGGTSQRYVMGWYRQAPGKERELVAAITKSGVRTYYADSVKGRFTISRDNAKNKVYLQMNSLKPEDTAVYYCAAKTPTKDRGSDFDYWGQGTQVTVSS | high polyreactivity
17 | QDQLVESGGGLVQAGGSLRLSCAASGITIWRYAMGWYRQAPGKERELVAAISWSGSRTYYADSVKGRFTISRDNAKNTVYLQMNSLKPEDTAVYYCAAAFDLWITITGFDYWGQGTQVTVSS | low polyreactivity
18 | QVQLVESGGGLVQAGGSLRLSCAASGGTFAVNVMGWYRQAPGKERELVAAITSNGGSTYYADSVKGRFTISRDNAKNTVYLQMNSLTPEDTAVYYCAAEGSGWYTGHYYYWGQGTQVTVSS | low polyreactivity
19 | QVQLVESGGGLVQAGGSLRLSCAASGFIFSTNAKGWYSQAPGKERELVATIRSGVSTYYADSVKGRFTISRDNAKNTVYLQMNSLKPEDTAVYYCNVDDTSRTTSGGRFGQVESDYWGQGTQVTVSS | low polyreactivity
20 | QVQLVESGGGLVQAGGSLRLSCAASGSTFAGNAMGWYRQAPGKERELVAAITWSGGNTNYADSVKGRFTISRDNAKNTVYLQMNSLKPEDTAVYYCASDFSGSLAYDYWGQGTQVTVSS | low polyreactivity
21 | QVQLVESGGGLVQAGGSLRLSCAASGLTFWRYTMGWYRPAPGKERELVAVITYRGGSTYYADSVKGRFTISRDNAKNTVYLQMNSLKPEDTAVYYCDAGRRTYGLTYDYWGQGTQVTVSS | high polyreactivity
22 | QVQLQESGGGLVQAGGSLRLGCAASGNISDAGYMGWYRQAPGKEREFVAAIAAGSNTNYADSVKGRFTISRDNAKNTVYMQLNSLKSEDTGVFYCAVASYDRVQYEYWGQGTQVTVNS | low polyreactivity

Row | Sequence | polyreactivity (PSR sort gate)
23 | QVQLVESGGGLVQAGGSLSLSCAASGYTLYANAMGWYRQAPGKERELVAAIRSGGSTNYADSVKGRFTISRDNAKNTVYLQMNSMKPEDTAVYYCAKDPYQDFLYLRYYGYYYWGQGTQVTVSS | low polyreactivity
24 | QVQLVESGGGLVQAGGSLRLSCAASGRIFVYNAMGWYRQAPGKEREFVATITSSGGRTYYADSVKGRFTISRDNAKNTVYLQMNSLKPEDTAVYYCAARPQNNGRNPVYRYNYWGQGTQVTVSS | high polyreactivity
25 | HVQLVESVGGLVQAGGSLRLRCAASGSIFYRNAMGWYRKAPGKERELVAAISSDGSTNYADSVKGRFTISRDNAKNSVYFQMNSLKPEDTAVYYCAAPWTQILDYWGQGTQVTVSS | low polyreactivity
26 | QVQLVESGGGLVQAGGSLRLSCAASGRISKRYTMGWYRQAPGKERELVAAITNSGGTTYYADSVKGRFTISRDNAKNTVYLQMNSLKPEDTAVYYCNKPYGAETAHREFDYWGQGTQVTVSS | low polyreactivity
27 | QVQLVESGGGLDQAGGSLRLSSAASGSIFRGNAMGWYRQAPGKERELVAGINRAGSTKYADSVKGRFTISRDNAKNTVYLQMNSLIPEDTAVYYCAAVRYERGLWSDYWGQGTQVTVSS | high polyreactivity
28 | QVQLVESGGGLVQAGGSLRLSCAASGFTFAPYVMGWYRQAPGKETELVAAIPTRGGSTYYADSVKGRFTISRDNAKNTVYLQMNSLKPEDTAVYYFAAQRRYDTADHGYWGQGTQVTVSS | high polyreactivity
29 | QVQLVESGGGLVQAGGSLRLSCAASGFIFISNAMGWSRQAPGKERELVARISDTDRTHYADSVKGRFTISRDNAKNTVYLQMNSLKPEDTAVYYCAAYDYNAIEYGYWGQGSQVTVSS | low polyreactivity
30 | HDQLVESGGGLVQAGGSLRLSCAASGFTFLDYAMGWSRKAPGKERELVASISSSGGSTRYADSVKGRFTISRDNAKNTVYLQMKSLKPQDTAVYYCNAQIAEVPNDYWGQGTPVTVSS | low polyreactivity
31 | QDQLVESGGGLVQAGGSLRLSCAASGIIFSIYAMGWYRQAPGKERELVAVISRSSGSTYYADSVKGRFTISRDNAKNSVYLQMNSLKPEDTAVYYCAARKNRAYGYWGQGTQVTVSS | high polyreactivity
32 | QVQLVESGGGLVQAGGSLRLSCAGSGRILVQNDMGWYRQAPGNESELVAAIRSDGSTSYADSVKGRFTISRDNAKYTVYLQMNSLKPEDTAVYYCAARIDWTGGYYDYWGQGTQVTVSS | low polyreactivity
33 | QVQLVESGVGLVQAGGSLRLSCAASGSIFVNYAMGWYRQAPWKERELVAAITLRGGSTFYADSVKGRFTISRDNAKNTVYLQMHSLKPEDTAVYYCAASSLRYRAYKSLFDFWGQGTQVTVSS | low polyreactivity
34 | QVQLVESGGGLVHAGGSLRLSCAASGRTFATYAMGWYRQAPGKERELVAAITSGGSTYYADSVKGRFTISRDNAKNTVYLQMNSLKPEDTAVYYCAADLSTYRRGFDYWGQGTHVTVSS | high polyreactivity
35 | QVQLQESGGGLVQAGGSLRLSCAASGNISVTGVMGWYRQAPGKERELVASIGIGGTTYYADSVKGRFSISRDNAKNTVYLQMNSLKPEDTAVYYCGARYVYSAYSYWGQGSQVTVSS | low polyreactivity
36 | QVQLVESGGGLVQAGGSLRLSCAASGRIFAPYAMGWYRQAPGKEREVVAGITRGGITNYADSVKGRFTISRDNAKNTVYLQMNSLKPEDTAVYYCATVVNRRGFYQYYYWGQGTQVTVSS | high polyreactivity
37 | LVQLVESGGGLVQAGGSLSLSCAAYGRTFAKNAMGWYRQAPGKERDLVAVINRSGGSTYADSVKGRFTISRDNAKNTVYLQMNSLKPEDTAVYYWADYYFRSYSKTYIYPFDYWGQGSQVTVSS | low polyreactivity
38 | QVQLVESGRCLVQAGCSLRLSCAASGYTFSRSAMGWYRQAPGKERELVAAISWSGGSTYYADSVKGRFTISRDNAKNTVYLQMNSLKPEDTAVYYCIKVRYVSQTAFYYWGQGTQVTVSS | high polyreactivity
39 | QVQHVESGGGLVQAGGSLSLSCAASGFIFSAYAMGWYRRAAGKERKLVDAITRSGGITDYADSVKGRFTISRDIAKNTVYLQMNSLKPEDTADYYCAALRVQQVKSYYYWGQGTQVTVSW | high polyreactivity
40 | QVQLVESGGGLVQAGGSLRLSCAASGRIFTRNTMGWYRQAPGKERELVAAITSRGGSTYYADSVKGRFTISRDNAKNTVYLQMNSLKPEDTAVYYCAADKPRSYYYWGQGTQVTVSS | high polyreactivity
41 | QVQLVESGGGLVQAGGSLRLSCAASGRTFYVYAMGWYRQAPGKERELVAAITKNGGNTYYADSVKGRFTISRDNAKNTVYLQMNSLKPEDTAVYYCAADKQGFLISYTGYDYWGQGTQVTVSS | low polyreactivity
42 | QVQHVESGGGLVQAGGSLRLSCAASGFTFVYYVMGWYRQAPGKERELVAAINAGGGSTYYADSVKGRFTISRDNAKNTVYLQMNSLKPEDTAVYYCNARVRVRLGRNWSSYYYWGQGTQVTVSS | high polyreactivity
43 | QVQLVESGGCLVQAGGSLRLSCAASGSTFGYYAMGWYRQAPGKERELVAAITSNDGSTHYADSVKGRFTISRDNAKNTVYLQMNSLKPEDTEVYYCNARSFVAVISSFVYWGQGTQVTVSS | low polyreactivity
